Test results from paper doi:10.1101/2025.02.03.636288.

Biological target: MBP-CARD9 (human) (UniProt Q9H257)
Assay: other fluorescence titration

MBP-CARD9 (human), sequence (Q9H257 whole entry): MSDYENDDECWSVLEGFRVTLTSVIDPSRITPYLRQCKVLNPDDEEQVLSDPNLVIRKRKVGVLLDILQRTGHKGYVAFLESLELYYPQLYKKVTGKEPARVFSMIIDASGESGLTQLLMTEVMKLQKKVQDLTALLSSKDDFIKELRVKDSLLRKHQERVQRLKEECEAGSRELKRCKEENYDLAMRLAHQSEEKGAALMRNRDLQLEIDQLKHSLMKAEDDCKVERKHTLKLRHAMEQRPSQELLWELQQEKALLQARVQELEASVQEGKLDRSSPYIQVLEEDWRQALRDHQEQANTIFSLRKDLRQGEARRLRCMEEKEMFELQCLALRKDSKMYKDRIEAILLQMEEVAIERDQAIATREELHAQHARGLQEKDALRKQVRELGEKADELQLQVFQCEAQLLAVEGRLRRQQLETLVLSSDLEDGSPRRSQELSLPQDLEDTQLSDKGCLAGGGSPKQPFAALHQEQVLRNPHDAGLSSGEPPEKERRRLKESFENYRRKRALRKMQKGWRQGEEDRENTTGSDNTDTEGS

CK2 complex (New England Bio, P6010L) (from UniProt P68400 1-391; P67870 1-215)
Kd: 300 nM
